Assay results as given in US20260152557A1 (Adimab, published 2026).

Columns and labels:
[1] = molecular target: T1, human CD3εδ-Fc heterodimer (Hu CD3ε Fc / CD3δ Fc-HIS) (human, UniProt P04234 22-100); assay: BLI (Octet), yeast-produced IgG on AHC sensor, CD3εδ-Fc 100 nM in solution, pH 6.0
T1 construct: range 22-100; Produced in HEK 293 cells with a heterologous signal peptide; heterodimer purified by Ni Sepharose and Mono Q; also called Hu CD3εδ Fc heterodimer; CD3εδ Fc-HIS heterodimer; not shown: Fc-HIS part of CD3δ Fc-HIS
Experimental: (§1) Anti-CD3 antibodies Antibody Nos. 1-13 were produced as human IgG1 antibodies in yeast or CHO cells. IgGs produced in yeast were aglycosylated, CHO) produced IgGs had standard CH2 glycosylation. Binding affinity to human or cynomolgus CD3εδ-Fc at pH 7.4 and pH 6.0 was measured via biolayer interferometry (BLI) using the ForteBio OCTET® HTX system and analyzed using the ForteBio software.
(§2) Kinetics were analyzed using the 1:1 binding model.

[2] = molecular target: T2, cynomolgus CD3εδ-Fc heterodimer (Cy CD3ε Fc / CD3δ Fc-HIS) (cynomolgus, UniProt Q95LI8 22-100); assay: as above
T2 construct: range 22-100; Produced in HEK 293 cells; also called Cy CD3εδ Fc heterodimer; not shown: Fc-HIS part of CD3δ Fc-HIS
Experimental: as §1, §2

[3] = molecular target: T3, cynomolgus CD3 on HSC-F cells (cynomolgus, UniProt Q95LI5 22-198); assay: flow cytometry, yeast-produced IgG 100 nM on HSC-F cells, pH 7.4
T3 construct: whole, on cells; also called Cyno HSC-F; cynomolgus HSC-F cells
Experimental: (§3) Anti-CD3 antibodies Antibody Nos. 1-13 were produced as aglycosylated IgGs comprising a IgG1 Fc region in yeast cells. Binding to human or cynomolgus CD3-expressing cells (human CD3+ Jurkat cells or cynomolgus HSC-F cells, respectively) at pH 7.4 and pH 6.0 were measured by fluorescence-activated single cell sorting (FACS). Normalized cell binding (NCB) values were calculated based on median fluorescence intensity (MFI) values, CD3 negative Jurkat cells were used as a negative control.
(§4) Cell binding assay, CD3+ and CD3− human Jurkat cells (ATCC) and cynomolgus HSC-F cells (NIH) were thawed and washed with cold PBSF buffer, pH 7.4 (PBS+0.1% BSA, pH 7.4). About 200,000 cells were aliquoted per well of a 96-well plate (FACS Assay Plate VWR BD 353263) and pelleted by centrifugation (5 minutes at 500×g). The cells were washed with either PBSF pH 7.4 or PBSF pH 6.0 (PBS+0.1% BSA, pH 6.0), and then resuspended in 100 μl in either PBSF pH 7.4 or PBSF pH 6.0 with IgG antibody (100 nM) produced in yeast as described above. The mixture (cells+antibody) was incubated for 20 minutes on ice, then washed twice with either PBSF pH 7.4 or PBSF pH 6.0. Cells were resuspended in 50 μl of propidium iodide (Roche; 1:500 dilution) and anti-human IgG-RPE (Southern Biotech; 1:100 dilution) prepared in either PBSF pH 7.4 or PBSF pH 6.0, then incubated for 20 minutes on ice in the dark before cells were washed twice with either PBSF pH 7.4 or PBSF pH 6.0. Binding was analyzed on FACS Canto 11.

[4] = molecular target: T3, cynomolgus CD3 on HSC-F cells; assay: flow cytometry, yeast-produced IgG 100 nM on HSC-F cells, pH 6.0
Experimental: as §3, §4

[5] = molecular target: T1, human CD3εδ-Fc heterodimer (Hu CD3ε Fc …); assay: BLI (Octet), yeast-produced IgG on AHC sensor, CD3εδ-Fc 100 nM in solution, pH 7.4
Experimental: as §1, §2

[6] = molecular target: T2, cynomolgus CD3εδ-Fc heterodimer (Cy …); assay: as above
Experimental: as §1, §2

[7] = molecular target: T4, human CD3 on CD3+ Jurkat cells (human, UniProt P07766 23-207); assay: flow cytometry, yeast-produced IgG 100 nM on CD3+ Jurkat cells, pH 6.0
T4 construct: whole, on cells; The whole CD3 complex stands on the cells; also called Human CD3 Jurkat; human CD3+ Jurkat cells
Experimental: as §3, §4

[8] = molecular target: T4, human CD3 on CD3+ Jurkat cells; assay: flow cytometry, yeast-produced IgG 100 nM on CD3+ Jurkat cells, pH 7.4
Experimental: as §3, §4

[9] = molecular target: T1, human CD3εδ-Fc heterodimer (Hu CD3ε Fc …); assay: SPR (Biacore 8K), yeast-produced Fab, monovalent, pH 6.0
Experimental: (§5) Anti-CD3 antibodies (Antibody Nos. 1-13) were produced as human IgG1 antibodies in yeast or Chinese hamster ovary (CHO) cells, and Fab fragments were generated from the IgG1 antibodies by papain digestion and purified IgGs produced in yeast were aglycosylated. CHO produced IgGs had standard CH2 glycosylation. […] Monovalent binding affinity to human or cynomolgus CD3εδ-Fc at pH 7.4 and pH 6.0 were measured via surface plasmon resonance (SPR) using the BIACORE® 8K (Cytiva, previously GE Healthcare Life Sciences) system and analyzed using BIACORE® Evaluation Software.
(§6) BIACORE® KD measurements (surface plasmon resonance; SPR). BIACORE® affinity measurements were performed generally as previously described. Briefly, human CD3εδ-Fc heterodimer produced as described above was immobilized to a NiNTA sensor chip in a BIACORE® 8K (Cytiva, previously GE Healthcare Life Sciences) to a response level of ˜500 RUs. […] The sensor chip was doubly regenerated between cycles using 0.35 M EDTA and 0.1 M NaOH. The resulting data were double reference subtracted and fit to a 1:1 binding model using BIACORE® Evaluation Software.

[10] = molecular target: T1, human CD3εδ-Fc heterodimer (Hu CD3ε Fc …); assay: SPR (Biacore 8K), yeast-produced Fab, monovalent, pH 7.4
Experimental: as §5, §6

T3 sequence (Q95LI5 22-198): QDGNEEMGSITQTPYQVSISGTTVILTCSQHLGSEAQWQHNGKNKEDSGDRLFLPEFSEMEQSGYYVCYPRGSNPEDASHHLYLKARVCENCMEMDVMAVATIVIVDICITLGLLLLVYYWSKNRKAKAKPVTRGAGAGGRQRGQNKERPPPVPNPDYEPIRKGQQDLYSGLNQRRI
T4 sequence (P07766 23-207): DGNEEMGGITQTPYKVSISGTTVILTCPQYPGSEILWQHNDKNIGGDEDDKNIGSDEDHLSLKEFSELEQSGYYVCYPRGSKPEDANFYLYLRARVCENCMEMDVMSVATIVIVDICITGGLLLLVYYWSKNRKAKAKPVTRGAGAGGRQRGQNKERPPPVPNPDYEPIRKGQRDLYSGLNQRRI
T2 sequence (chain, as listed by the source mutant, form in doubt, chain 1 of 2): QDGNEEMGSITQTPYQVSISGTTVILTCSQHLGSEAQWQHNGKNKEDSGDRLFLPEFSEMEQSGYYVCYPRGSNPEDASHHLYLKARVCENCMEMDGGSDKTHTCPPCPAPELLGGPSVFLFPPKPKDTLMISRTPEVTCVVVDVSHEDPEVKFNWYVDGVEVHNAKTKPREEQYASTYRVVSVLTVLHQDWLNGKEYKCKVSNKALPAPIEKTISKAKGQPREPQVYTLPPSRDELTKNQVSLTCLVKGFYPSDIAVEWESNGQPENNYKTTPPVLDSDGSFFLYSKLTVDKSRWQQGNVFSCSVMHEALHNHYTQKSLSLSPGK
T2 sequence (Q95LI8 22-100, stated change not applied, form in doubt, chain 2 of 2): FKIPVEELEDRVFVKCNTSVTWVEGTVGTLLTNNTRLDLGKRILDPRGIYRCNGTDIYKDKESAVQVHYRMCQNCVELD
T1 sequence (chain, as listed by the source mutant, form in doubt, chain 1 of 2): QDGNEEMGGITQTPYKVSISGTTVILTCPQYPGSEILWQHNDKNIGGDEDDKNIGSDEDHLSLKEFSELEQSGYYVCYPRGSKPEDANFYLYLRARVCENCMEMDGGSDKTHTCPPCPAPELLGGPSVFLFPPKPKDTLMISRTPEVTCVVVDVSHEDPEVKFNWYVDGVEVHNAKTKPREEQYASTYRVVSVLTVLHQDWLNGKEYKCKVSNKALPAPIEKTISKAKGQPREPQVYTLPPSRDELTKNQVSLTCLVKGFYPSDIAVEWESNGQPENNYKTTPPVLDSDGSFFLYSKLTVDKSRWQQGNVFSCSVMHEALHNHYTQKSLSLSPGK
T1 sequence (P04234 22-100, stated change not applied, form in doubt, chain 2 of 2): as the sequence (Q95LI8 22-100, stated change not applied, form in doubt, chain 2 of 2) above, with V5I, K15N, V20I, T32S, N33D, N34I, A64T, N74S counted along it

Row | Kd [1] [nM] | Kd [2] [nM] | NCB [3] | NCB [4] | Kd [5] [nM] | Kd [6] [nM] | NCB [7] | NCB [8] | Kd [9] [nM] | Kd [10] [nM] | Binder
1 | 6.52 | 6.88 | 172 | 575 | 16.1 | 17.9 | 208 | 139 | – | – | ADI-79842 (Antibody No. 7), human IgG1 (antibody, V domains shown, Tested as yeast-produced aglycosylated human IgG1) VH: QVQLVQSGAEVKKPGASVKVSCKASGFNIKDYYMHWVRQAPGQRLEWMGWIDLENANTIYDAKFQGRVTITRDTSASTAYMELSSLRSEDTAVYYCARDHYGRYFYDVWGQGTLVTVSS VL: DIVMTQSPDSLAVSLGERATINCKSSQSLLNARTGKNYLAWYQQKPGQPPKLLIYWASTRESGVPDRFSGSGSGTDFTLTISSLQAEDVAVYYCKQSYSRRTFGGGTKVEIK
2 | 1.6 | 1.76 | 174 | 603 | 6.64 | 5.66 | 207 | 149 | – | – | ADI-79843 (Antibody No. 8), human IgG1 (antibody, V domains shown, Tested as yeast-produced aglycosylated human IgG1) VH: QVQLVQSGAEVKKPGASVKVSCKASGFNIKDYYMHWVRQAPGQRLEWMGWIDLENANTIYDAKFQGRVTITRDTSASTAYMELSSLRSEDTAVYYCARDAYHRYFYDVWGQGTLVTVSS VL: DIVMTQSPDSLAVSLGERATINCKSSQSLLNARTGKNYLAWYQQKPGQPPKLLIYWASTRESGVPDRFSGSGSGTDFTLTISSLQAEDVAVYYCKQSYSRRTFGGGTKVEIK
3 | 3.6 | 2.94 | 160 | 603 | 6.51 | 5.42 | 196 | 147 | – | – | ADI-79844 (Antibody No. 10), human IgG1 (antibody, V domains shown, Tested as yeast-produced aglycosylated human IgG1) VH: QVQLVQSGAEVKKPGASVKVSCKASGFNIKDYYMHWVRQAPGQRLEWMGWIDLENANTIYDAKFQGRVTITRDTSASTAYMELSSLRSEDTAVYYCARDAYGRYFYDVWGQGTLVTVSS VL: DIVMTQSPDSLAVSLGERATINCKSSQSLLNARTGKNYLAWYQQKPGQPPKLLIYWASTRESGVPDRFSGSGSGTDFTLTISSLQAEDVAVYYCKQSHSRRTFGGGTKVEIK
4 | 1.04 | – | 167 | 581 | 9.87 | 8.06 | 200 | 149 | – | – | ADI-79845 (Antibody No. 11), human IgG1 (antibody, V domains shown, Tested as yeast-produced aglycosylated human IgG1) VH: QVQLVQSGAEVKKPGASVKVSCKASGFNIKDYYMHWVRQAPGQRLEWMGWIDLENANTIYDAKFQGRVTITRDTSASTAYMELSSLRSEDTAVYYCARDAYGRYFYDVWGQGTLVTVSS VL: DIVMTQSPDSLAVSLGERATINCKSSQSLLNARTGKNYLAWYQQKPGQPPKLLIYWASTRESGVPDRFSGSGSGTDFTLTISSLQAEDVAVYYCKQSYSHRTFGGGTKVEIK
5 | 8.09 | 11.8 | 2 | 235 | – | – | 65 | 4 | – | – | ADI-79846 (Antibody No. 12), human IgG1 (antibody, V domains shown, Tested as yeast-produced aglycosylated human IgG1) VH: QVQLVQSGAEVKKPGASVKVSCKASGFNIKDYYMHWVRQAPGQRLEWMGWIDLENANTIYDAKFQGRVTITRDTSASTAYMGLSSLRSEDTAVYYCARDHYGRYFYDVWGQGTLVTVSS VL: DIVMTQSPDSLAVSLGERATINCKSSQSLLNARTGHNYLAWYQQKPGQPPKLLIYWASTRESGVPDRFSGSGSGTDFTLTISSLQAEDVAVYYCKQSHSHRTFGGGTKVEIK
6 | – | – | 0 | 2 | – | – | 0 | 0 | – | – | ADI-79847 (Antibody No. 13), human IgG1 (antibody, V domains shown, Tested as yeast-produced aglycosylated human IgG1) VH: QVQLVQSGAEVKKPGASVKVSCKASGFNIKDYYMHWVRQAPGQRLEWMGWIDLENANTIYDAKFQGRVTITRDTSASTAYMELSSLRSEDTAVYYCARDHYHRYFYDVWGQGTLVTVSS VL: DIVMTQSPDSLAVSLGERATINCKSSQSLLNARTGHNYLAWYQQKPGQPPKLLIYWASTRESGVPDRFSGSGSGTDFTLTISSLQAEDVAVYYCKQSHSRRTFGGGTKVEIK
7 | 6.47 | 6.28 | 173 | 550 | 11.6 | 14.5 | 200 | 136 | – | – | ADI-79848 (Antibody No. 9), human IgG1 (antibody, V domains shown, Tested as yeast-produced aglycosylated human IgG1) VH: QVQLVQSGAEVKKPGASVKVSCKASGFNIKDYYMHWVRQAPGQRLEWMGWIDLENANTIYDAKFQGRVTITRDTSASTAYMELSSLRSEDTAVYYCARDAYGRYFYDVWGQGTLVTVSS VL: DIVMTQSPDSLAVSLGERATINCKSSQSLLNARTGHNYLAWYQQKPGQPPKLLIYWASTRESGVPDRFSGSGSGTDFTLTISSLQAEDVAVYYCKQSYSRRTFGGGTKVEIK
8 | – | – | – | – | – | – | – | – | 6.16 | 32.6 | Fab of ADI-79842 (Antibody No. 7) (Fab, V domains shown, Fab made by papain digestion of the yeast-produced human IgG1; also called Antibody No. 7 Fab; ADI-79842 Fab) VH: QVQLVQSGAEVKKPGASVKVSCKASGFNIKDYYMHWVRQAPGQRLEWMGWIDLENANTIYDAKFQGRVTITRDTSASTAYMELSSLRSEDTAVYYCARDHYGRYFYDVWGQGTLVTVSS VL: DIVMTQSPDSLAVSLGERATINCKSSQSLLNARTGKNYLAWYQQKPGQPPKLLIYWASTRESGVPDRFSGSGSGTDFTLTISSLQAEDVAVYYCKQSYSRRTFGGGTKVEIK
9 | – | – | – | – | – | – | – | – | 0.796 | 5.9 | Fab of ADI-79843 (Antibody No. 8) (Fab, V domains shown, Fab made by papain digestion of the yeast-produced human IgG1; also called Antibody No. 8 Fab; ADI-79843 Fab) VH: QVQLVQSGAEVKKPGASVKVSCKASGFNIKDYYMHWVRQAPGQRLEWMGWIDLENANTIYDAKFQGRVTITRDTSASTAYMELSSLRSEDTAVYYCARDAYHRYFYDVWGQGTLVTVSS VL: DIVMTQSPDSLAVSLGERATINCKSSQSLLNARTGKNYLAWYQQKPGQPPKLLIYWASTRESGVPDRFSGSGSGTDFTLTISSLQAEDVAVYYCKQSYSRRTFGGGTKVEIK
10 | – | – | – | – | – | – | – | – | 2.34 | 3.45 | Fab of ADI-79844 (Antibody No. 10) (Fab, V domains shown, Fab made by papain digestion of the yeast-produced human IgG1; also called Antibody No. 10 Fab; ADI-79844 Fab) VH: QVQLVQSGAEVKKPGASVKVSCKASGFNIKDYYMHWVRQAPGQRLEWMGWIDLENANTIYDAKFQGRVTITRDTSASTAYMELSSLRSEDTAVYYCARDAYGRYFYDVWGQGTLVTVSS VL: DIVMTQSPDSLAVSLGERATINCKSSQSLLNARTGKNYLAWYQQKPGQPPKLLIYWASTRESGVPDRFSGSGSGTDFTLTISSLQAEDVAVYYCKQSHSRRTFGGGTKVEIK
